{"source": "paper PMC11236980", "about": "“PARG is essential for Polθ-mediated DNA end-joining by removing repressive poly-ADP-ribose marks”", "key": {"PARP1": {"molecular_target": "PARP1 (UniProt P09874 1-1014)", "sequence (P09874 whole entry)": "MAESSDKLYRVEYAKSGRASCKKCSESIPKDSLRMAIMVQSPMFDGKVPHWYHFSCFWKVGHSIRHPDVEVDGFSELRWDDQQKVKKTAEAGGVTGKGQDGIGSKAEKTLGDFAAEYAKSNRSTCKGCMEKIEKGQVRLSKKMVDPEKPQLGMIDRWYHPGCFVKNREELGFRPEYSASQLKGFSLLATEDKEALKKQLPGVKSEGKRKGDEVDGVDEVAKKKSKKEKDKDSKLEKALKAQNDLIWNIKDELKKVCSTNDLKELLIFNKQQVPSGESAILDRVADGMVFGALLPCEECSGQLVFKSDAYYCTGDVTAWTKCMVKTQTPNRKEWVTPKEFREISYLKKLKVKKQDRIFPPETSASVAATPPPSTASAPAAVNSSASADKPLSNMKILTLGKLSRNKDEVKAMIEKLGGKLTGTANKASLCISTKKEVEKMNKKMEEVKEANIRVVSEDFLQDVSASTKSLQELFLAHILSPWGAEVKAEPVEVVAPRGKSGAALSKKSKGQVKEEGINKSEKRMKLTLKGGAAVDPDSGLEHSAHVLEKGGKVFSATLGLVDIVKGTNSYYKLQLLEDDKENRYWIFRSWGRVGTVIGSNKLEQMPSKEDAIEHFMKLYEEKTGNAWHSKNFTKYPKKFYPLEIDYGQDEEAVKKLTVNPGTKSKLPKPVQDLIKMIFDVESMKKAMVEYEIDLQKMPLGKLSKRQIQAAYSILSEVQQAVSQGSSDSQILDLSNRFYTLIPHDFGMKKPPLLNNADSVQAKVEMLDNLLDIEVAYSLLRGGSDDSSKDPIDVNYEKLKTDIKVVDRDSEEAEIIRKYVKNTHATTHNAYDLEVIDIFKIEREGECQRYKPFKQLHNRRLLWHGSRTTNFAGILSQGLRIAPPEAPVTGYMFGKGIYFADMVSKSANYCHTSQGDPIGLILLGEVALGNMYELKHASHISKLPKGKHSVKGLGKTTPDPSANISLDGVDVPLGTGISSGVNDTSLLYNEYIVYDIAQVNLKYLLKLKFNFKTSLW", "test": "EMSA; 25 nM PARP1; 25 mM Tris-HCl pH 7.5, 5 mM MgCl2, 30 mM NaCl, 5% glycerol, 0.1 mg/mL BSA, 1 mM DTT; PARylation 20 min 37 °C, binding at room temperature; 8% native PAGE 0.5x TBE", "settings": "protein: recombinant; tags: N-terminal His; label: 5'-Cy3; single strand"}, "Polθ-hel": {"molecular_target": "Polθ-hel (human, UniProt O75417 1-894)", "sequence (O75417 1-894)": "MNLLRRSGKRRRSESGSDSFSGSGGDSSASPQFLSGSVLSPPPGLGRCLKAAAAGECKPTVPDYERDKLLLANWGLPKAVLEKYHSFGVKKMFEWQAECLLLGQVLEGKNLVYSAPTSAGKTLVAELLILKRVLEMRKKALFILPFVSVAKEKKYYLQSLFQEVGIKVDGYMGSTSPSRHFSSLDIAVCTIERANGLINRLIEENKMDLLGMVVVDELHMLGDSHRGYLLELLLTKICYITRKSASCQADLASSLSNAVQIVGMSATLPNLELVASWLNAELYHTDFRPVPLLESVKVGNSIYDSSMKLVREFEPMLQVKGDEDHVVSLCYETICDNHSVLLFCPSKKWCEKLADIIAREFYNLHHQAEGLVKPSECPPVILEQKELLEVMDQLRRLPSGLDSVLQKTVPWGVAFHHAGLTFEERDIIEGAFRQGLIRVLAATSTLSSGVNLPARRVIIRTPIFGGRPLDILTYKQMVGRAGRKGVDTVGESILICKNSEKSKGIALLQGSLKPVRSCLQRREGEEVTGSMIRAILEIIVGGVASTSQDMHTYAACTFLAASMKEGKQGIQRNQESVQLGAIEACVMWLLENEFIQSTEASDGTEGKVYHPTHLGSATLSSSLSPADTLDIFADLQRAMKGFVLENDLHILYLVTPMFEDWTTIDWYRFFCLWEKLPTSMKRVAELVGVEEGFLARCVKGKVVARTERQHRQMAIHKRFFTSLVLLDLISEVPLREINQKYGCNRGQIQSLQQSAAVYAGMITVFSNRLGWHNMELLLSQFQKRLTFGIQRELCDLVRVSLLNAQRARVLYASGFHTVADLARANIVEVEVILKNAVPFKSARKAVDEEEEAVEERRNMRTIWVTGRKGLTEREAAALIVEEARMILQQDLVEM", "test": "EMSA; PARP1 or NAD+ omitted; 40 nM protein, 10 nM DNA; 25 mM Tris-HCl pH 7.5, 5 mM MgCl2, 30 mM NaCl, 5% glycerol, 0.1 mg/mL BSA, 1 mM DTT; PARylation 20 min 37 °C, binding at room temperature; 8% native PAGE 0.5x TBE", "settings": "protein: recombinant; label: 5'-Cy3; single strand"}}}
{"binder": "TTTTTTTTTTTTTTTTTTTTTTTTTTTTT (ssDNA)", "note": "[RP316-Cy3]", "values": [{"measurement": "binding result", "setting": "PARP1", "value": "no binding"}, {"measurement": "binding result", "setting": "Polθ-hel", "value": "binds"}]}
